From patent publication US20250009801A1 (Innovent, published 2025)

Legend:
[1] = molecular target: HB37A6 PG Ab (P329G mutated HB37A6 antibody, human IgG1); assay: cell-based or functional assay
[2] = molecular target: T1, human Claudin18.2-His (Acro, CL2-H5546) (human, UniProt P56856-2 1-261); assay: SPR (Biacore T200), Claudin18.2-His coupled on CM5 chip, antibody in the mobile phase (avidity)
T1 construct: Bought reagent, amine-coupled to a CM5 chip; also called recombinant human CLDN18.2 protein; not shown: His tag

Chain of HB37A6 PG Ab (P329G mutated HB37A6 antibody, human IgG1) (heavy, as listed by the source, chain 1 of 2): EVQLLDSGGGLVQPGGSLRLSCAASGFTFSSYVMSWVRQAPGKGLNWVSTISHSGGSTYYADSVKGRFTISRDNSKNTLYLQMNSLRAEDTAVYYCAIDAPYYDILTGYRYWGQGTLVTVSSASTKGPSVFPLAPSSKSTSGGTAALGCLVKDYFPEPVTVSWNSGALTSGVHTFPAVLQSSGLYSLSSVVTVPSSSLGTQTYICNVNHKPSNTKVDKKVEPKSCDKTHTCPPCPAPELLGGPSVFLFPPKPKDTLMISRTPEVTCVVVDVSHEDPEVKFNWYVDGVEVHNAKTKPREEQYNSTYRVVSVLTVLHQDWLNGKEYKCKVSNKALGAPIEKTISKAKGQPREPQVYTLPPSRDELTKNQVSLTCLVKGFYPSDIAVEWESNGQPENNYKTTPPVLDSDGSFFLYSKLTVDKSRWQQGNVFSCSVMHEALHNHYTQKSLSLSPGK
Chain of HB37A6 PG Ab (P329G mutated HB37A6 antibody, human IgG1) (light, as listed by the source, chain 2 of 2): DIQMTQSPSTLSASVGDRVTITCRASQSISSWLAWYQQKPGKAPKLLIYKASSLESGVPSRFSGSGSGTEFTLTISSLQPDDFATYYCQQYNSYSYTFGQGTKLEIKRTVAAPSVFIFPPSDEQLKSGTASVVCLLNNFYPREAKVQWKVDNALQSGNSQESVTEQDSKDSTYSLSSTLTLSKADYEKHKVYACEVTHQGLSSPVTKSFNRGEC

proliferation of CAR-T cells on plate-bound antibody (CellTiter-Glo), 2 days, against the WT antibody [1] [fold] | proliferation of CAR-T cells on plate-bound antibody (CellTiter-Glo), 3 days, against the WT antibody [1] [fold] | Kd [2] [nM] | koff [2] [s⁻¹] | kon [2] [M⁻¹ s⁻¹] | Binder
~2 | ~3.3 |  |  |  | HuR968B CAR on CAR-T cells (receptor) EVQLVESGGGLVQPGGSLRLSCAASGFTFSRYWMNWVRQAPGKGLEWVGEITPDSSTINYAPSLKGRFTISRDNAKNSLYLQMNSLRAEDTAVYYCARPYDYGAWFASWGQGTLVTVSSGGGGSGGGGSGGGGSGGGGSQAVVTQEPSLTVSPGGTVTLTCRSSTGAVTTSNYANWVQEKPDHLFTGLIGGTNKRAPGTPARFSGSLLGGKAALTLSGAQPEDEAEYYCALWYSNHWVFGGGTKLTVLGGGGSIYIWAPLAGTCGVLLLSLVITLYCKRGRKKLLYIFKQPFMRPVQTTQEEDGCSCRFPEEEEGGCELRVKFSRSADAPAYQQGQNQLYNELNLGRREEYDVLDKRRGRDPEMGGKPRRKNPQEGLYNELQKDKMAEAYSEIGMKGERRRGKGHDGLYQGLSTATKDTYDALHMQALPPR
 |  | 2.5 | 0.00177 | 709000 | Hz3G3 PG Ab (antibody, human IgG1, kappa, V domains shown, also called G3 PG antibody; G3 antibody) VH: QVQLVQSGAEVKKPGASVKVSCKASGYSFTTYWMHWVRQAPGQGLEWMGLIDPSDSETRLNQKFKDRVTMTVDTSTSTVYMELSSLRSEDTAVYYCASNRWLLGWGQGTLVTVSS VL: DIVMTQSPDSLAVSLGERATINCKSSQSLLNSGNQKNYLTWYQQKPGQPPKLLIYWASTRESGVPDRFSGSGSGTDFTLTISSLQAEDVAVYYCQNDYSYPLTFGQGTKLEIKR
 |  | < 0.00527 | < 1e-05 | 1.9e+06 | Hz69H9 PG Ab (P329G mutated Hz69H9 antibody, human IgG1) (antibody, V domains shown, also called H9 PG antibody; P329G H9 antibody) VH: QVQLVQSGAEVKKPGSSVKVSCKASGYSFSSYNIHWVRQAPGQGLEWMGYIAPFQGDSRYNQKFKGRVTITADKSTSTAYMELSSLRSEDTAVYYCARLNRGNSLDYWGQGTLVTVSS VL: DIVMTQSPDSLAVSLGERATINCKSSQSLFNSGNQRNYLTWYQQKPGQPPKLLIYWASTRESGVPDRFSGSGSGTDFTLTISSLQAEDVAVYYCQNNYIYPLTFGGGTKVEIKR
 |  | 0.325 | 0.000153 | 471000 | Hz69H9-SA PG Ab (antibody, human IgG1, kappa, V domains shown, Mutant of the parent Hz69H9 with point mutations in VH or VL; also called H9-SA PG antibody) VH: QVQLVQSGAEVKKPGSSVKVSCKASGYSFSSYNISWVRQAPGQGLEWMGYIAPFQGDARYNQKFKGRVTITADKSTSTAYMELSSLRSEDTAVYYCARLNRGNSLDYWGQGTLVTVSS VL: DIVMTQSPDSLAVSLGERATINCKSSQSLFNSGNQRNYLTWYQQKPGQPPKLLIYWASTRESGVPDRFSGSGSGTDFTLTISSLQAEDVAVYYCQNNYIYPLTFGGGTKVEIKR
 |  | 0.98 | 0.00185 | 1.89e+06 | Hz69H9-1.2 PG Ab (antibody, human IgG1, kappa, V domains shown, Mutant of the parent Hz69H9 with point mutations in VH or VL; also called H9-1.2 PG antibody) VH: QVQLVQSGAEVKKPGSSVKVSCKASGYSFSSYNIHWVRQAPGQGLEWMGYIAPFQGDARYNQKFKGRVTITADKSTSTAYMELSSLRSEDTAVYYCARLNRGQSLDYWGQGTLVTVSS VL: DIVMTQSPDSLAVSLGERATINCKSSQSLFNAGNQRNYLTWYQQKPGQPPKLLIYWASTRESGVPDRFSGSGSGTDFTLTISSLQAEDVAVYYCQNNYIYPLTFGGGTKVEIKR
